From publication PMC10578488 come the findings set out here.

In the test the target is recombinant PRMT5/MEP50 complex (human) (UniProt O14744). Put plainly: SEC; PRMT5/MEP50 and purified U7 6S combined (molar ratio 4:8 or 4:2) in 20 mM Hepes pH 7.7, 100 mM NaCl, 2 mM DTT, 1 h on ice; Superose 6.
Sequence of recombinant PRMT5/MEP50 complex (human) (O14744 whole entry, chain 1 of 2): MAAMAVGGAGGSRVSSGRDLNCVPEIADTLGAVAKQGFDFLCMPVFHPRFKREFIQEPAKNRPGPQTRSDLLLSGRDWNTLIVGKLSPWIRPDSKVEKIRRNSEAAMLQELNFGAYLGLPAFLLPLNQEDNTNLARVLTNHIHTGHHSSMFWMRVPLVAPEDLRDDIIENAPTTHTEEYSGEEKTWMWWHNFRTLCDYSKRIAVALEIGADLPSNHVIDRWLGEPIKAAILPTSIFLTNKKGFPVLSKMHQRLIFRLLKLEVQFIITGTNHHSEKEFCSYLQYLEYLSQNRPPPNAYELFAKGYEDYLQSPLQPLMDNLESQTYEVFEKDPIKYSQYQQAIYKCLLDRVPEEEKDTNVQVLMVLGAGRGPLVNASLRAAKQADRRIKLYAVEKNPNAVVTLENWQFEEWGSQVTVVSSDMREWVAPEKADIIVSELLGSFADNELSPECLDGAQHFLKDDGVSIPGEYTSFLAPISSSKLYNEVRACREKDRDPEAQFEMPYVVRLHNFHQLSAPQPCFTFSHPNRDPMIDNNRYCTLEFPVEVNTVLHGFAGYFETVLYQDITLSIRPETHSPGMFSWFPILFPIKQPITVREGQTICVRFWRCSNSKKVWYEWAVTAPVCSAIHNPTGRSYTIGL
Sequence of recombinant PRMT5/MEP50 complex (human) (Q9BQA1 whole entry, chain 2 of 2, further chain): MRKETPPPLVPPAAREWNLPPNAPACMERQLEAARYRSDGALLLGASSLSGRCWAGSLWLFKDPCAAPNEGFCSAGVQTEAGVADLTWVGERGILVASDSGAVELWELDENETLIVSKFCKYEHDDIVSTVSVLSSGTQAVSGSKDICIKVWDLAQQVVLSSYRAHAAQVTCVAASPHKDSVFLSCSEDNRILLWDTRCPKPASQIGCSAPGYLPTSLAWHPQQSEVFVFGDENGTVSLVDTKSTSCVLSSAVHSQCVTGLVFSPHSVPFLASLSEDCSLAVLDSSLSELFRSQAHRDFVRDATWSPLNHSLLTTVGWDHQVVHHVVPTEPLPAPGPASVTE

With “U7 6S complex (MBP-Lsm10/11ΔNL heterodimer, SmE/F/G heterotrimer and pICln) (from UniProt Q969L4 1-123; P83369 153-360; P62304 1-92; P62306 1-86; P62308 1-76; Q61189 1-236)”, the stoichiometry N (U7 6S per PRMT5/MEP50 heterooctamer) was 1.
